{"source": "patent US20220186223", "about": "“T-LYMPHOCYTE BINDING APTAMERS” (Aummune Ltd., published 2022)", "data": [{"biological_target": "CD3 epsilon (CD3ε), recombinant extracellular Fc chimera (Homo sapiens, UniProt P07766 P07766:23-126)", "sequence (P07766 23-126, change not shown, one chain of several)": "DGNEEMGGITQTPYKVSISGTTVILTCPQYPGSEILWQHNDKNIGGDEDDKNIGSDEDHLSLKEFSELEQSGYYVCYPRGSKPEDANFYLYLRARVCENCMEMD", "assay": "HPLC size exclusion shift, 1 hr 37 C and 4 C", "conditions": "tags: Fc chimera, His tag; Abcam ab220590; label: Cy5 via hybridised CpG'-Cy5 complementary strand", "procedure": "1 μM of folded Cy5 labeled aptamer was mixed with 50 µL of protein to a final volume of 60 ul and incubated for 1 hr at 4° C. or 37° C. Next, to detect the Cy-labelled aptamers, samples were analyzed at 570 nm absorption via HPLC ProSEC 300S size exclusion column (Agilent).\nTop five candidates (CS6, CS7, CS8, CS8c, and CS9 SEQ ID NO. 1-5) were synthesized with a 5(5′) phosphothioated CpG motif and assayed for Human CD3ε (hCD3ε) binding via the HPLC size exclusion column. In this method, the aptamers were labelled with Cy5 complementary sequence to the CpG site (Cy5-CpG′). Then, the folded-labelled candidates are incubated, each, with the CD3ε- recombinant protein or with negative control IgG1 (1 hr at 37° C. and 4° C.) and analyzed by HPLC ProSEC 300S size exclusion column (Agilent) at 570 nm absorption. Upon protein binding, the aptamer-protein complex has a greater mass than a free aptamer and as a result, the retention time (RT) at the column is expected to be shorter. Inversely, in the case of non-binding aptamer, the RT in the presence of protein will be the same as in the absence of the protein. As a control, PolyT sequence was used.", "values": [{"binder": "CATTTCATAGGGCTGCTTAGGATTGCGAAGGTAATGCCAG (ssDNA, synthesized with 5' CpG motif having 5 PS linkages (extension not in ref))", "note": "[CS7]", "binding result": "binds"}, {"binder": "CCCTTACCCCTTTTAGGTCTGCTTAGGATTGCGAAAAAAG (ssDNA, synthesized with 5' CpG motif having 5 PS linkages (extension not in ref))", "note": "[CS8]", "binding result": "binds"}, {"binder": "CTTTTAGGTCTGCTTAGGATTGCGAAAAAAG (ssDNA, synthesized with 5' CpG motif having 5 PS linkages (extension not in ref))", "note": "[CS8c (CS8cut)]", "binding result": "binds"}, {"binder": "TTGTAAGGACTGCTTAGGATTGCGAAAACAATATTCGTAT (ssDNA, synthesized with 5' CpG motif having 5 PS linkages (extension not in ref))", "note": "[CS9]", "binding result": "binds"}]}]}
